Source: patent US20170015749A1 (NATIONAL RESEARCH COUNCIL OF CANADA, published 2017)
Numbering of substitutions follows the chain as printed.

B1: IGF1R-3_H4 (VHH)
VHH: QVQLVESGGGLVQPGGSLRLSCAASEYPSNFYAMSWFRQAPGKEREFVAGVSRDGLTTLYADSVKGRFTMSRDNSKNTVYLQMNSLRAEDTAVYYCAIVITGVWNKVDVNSRSYHYWGQGTLVTVSS
notes: Humanized variant of IGF1R-3, monomeric VHH; not shown: C-terminal tag from expression vector pSJF2H (protein purified by IMAC)
B2: IGF1R-3 VHH (VHH)
VHH: B1 VHH with Q3K, V5E, P14A, A23V, S75A, Y80D, L86V, R87K, L122Q
notes: Llama VHH expressed in E. coli TG1 from pSJF2H and tested as monomer; also called anti-IGF1R VHH IGF1R-3; IGF1R VHH; not shown: C-terminal tag from expression vector pSJF2H (protein purified by IMAC)
B3: IGF1R-3_H1 (VHH)
VHH: B1 VHH with Q1E, F37V, E44G, R45L, F47W, A49S, M70I, V79L
notes: as for B1
B4: IGF1R-3_H2 (VHH)
VHH: B1 VHH with F37V, E44G, R45L, F47W
notes: as for B1
B5: IGF1R-3_H5 (VHH)
VHH: B1 VHH with Q1E, A49S, M70I, V79L
notes: as for B1

Biological target: T1, recombinant extracellular portion of human IGF1R (IGF1R^933-His) (human, UniProt P08069 31-933)
T1 construct: It contains a furin cleavage site (RKRR) between the alpha and beta subunits, so the secreted protein may be two disulphide-linked chains; Immobilized by amine coupling on a CM5 chip; also called recombinant human IGF1R; human IGF1R fragment; not shown: His tag from vector pCDN4/myc-His
Experiment: SPR, Biacore 3000, human IGF1R immobilized on CM5, VHH as analyte, 1:1 model
Procedure: (§1) Approximately 3000 Resonance Units (RU) of recombinant human IGF1R were immobilized on a Sensor chip CM5. Immobilization was carried out at a concentration of 10 μg/ml in 10 mM acetate at pH4.0 using the amine coupling kit supplied by the manufacturer. The remaining binding sites were blocked with 1 M ethanolamine pH 8.5. An ethanolamine blocked surface was used as a reference surface. For the binding studies, analyses were carried out at 25° C. in 10 mM HEPES, pH7.4 containing 150 mM NaCl, 3 mM EDTA and 0.005% surfactant P20 (Polyoxyethylenesorbitan; GE Healthcare). […] Surfaces were regenerated with 10 mM glycine pH 2.0 with a contact time of 24 seconds. Data were analyzed with BIAevaluation 4.1 software (GE Healthcare).

Binder	Kd [nM]	koff [s⁻¹]
B1	1.4	0.00055
B2	1.3	0.00013
B3	47	0.0023
B4	6.6	0.00072
B5	7.5	0.0025

Biological target: T2, recombinant human Insulin Receptor (R&D systems) (human, UniProt P06213-2 28-944, limits assumed)
T2 construct: extracellular domain; Immobilized on a CM5 chip at about 4000 RU; also called IR; recombinant extracellular portion of the human Insulin Receptor
Experiment: SPR, IGF1R-3 VHH (1 nM per text) injected over immobilised human Insulin Receptor surface (curve without asterisk)
Procedure: as §1

T2 sequence (P06213 other isoform, or with tags, fused parts or gaps limits assumed): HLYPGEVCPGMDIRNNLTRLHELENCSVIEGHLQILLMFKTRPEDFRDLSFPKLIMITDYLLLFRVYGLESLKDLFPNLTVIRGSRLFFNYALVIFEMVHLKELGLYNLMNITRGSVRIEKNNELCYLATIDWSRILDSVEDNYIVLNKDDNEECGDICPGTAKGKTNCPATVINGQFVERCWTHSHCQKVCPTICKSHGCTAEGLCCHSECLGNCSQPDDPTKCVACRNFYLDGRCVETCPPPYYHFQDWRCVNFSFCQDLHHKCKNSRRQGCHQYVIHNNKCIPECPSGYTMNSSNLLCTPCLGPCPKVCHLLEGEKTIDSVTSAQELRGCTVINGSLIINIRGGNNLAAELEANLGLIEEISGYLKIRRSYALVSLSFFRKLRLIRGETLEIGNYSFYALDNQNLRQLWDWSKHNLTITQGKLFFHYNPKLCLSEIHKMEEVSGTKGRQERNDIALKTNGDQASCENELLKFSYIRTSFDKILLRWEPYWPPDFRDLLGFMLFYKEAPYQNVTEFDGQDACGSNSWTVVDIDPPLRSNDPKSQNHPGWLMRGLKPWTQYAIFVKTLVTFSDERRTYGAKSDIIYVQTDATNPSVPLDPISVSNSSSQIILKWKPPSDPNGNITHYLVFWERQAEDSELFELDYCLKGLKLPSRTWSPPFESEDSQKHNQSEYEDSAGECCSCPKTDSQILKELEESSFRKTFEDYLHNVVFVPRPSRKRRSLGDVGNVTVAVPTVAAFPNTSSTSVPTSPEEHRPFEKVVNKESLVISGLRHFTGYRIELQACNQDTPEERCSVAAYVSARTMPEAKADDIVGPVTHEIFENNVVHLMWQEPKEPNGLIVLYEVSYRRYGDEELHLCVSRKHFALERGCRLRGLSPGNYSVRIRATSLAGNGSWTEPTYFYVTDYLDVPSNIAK

Binder	binding result
B2	no binding (tested: 1 nM)
